Data as given in IntAct's records for PubMed 27487388.

B1: Microsomal triglyceride transfer protein large subunit (Homo sapiens), P55157 (parent)
chain: MILLAVLFLCFISSYSASVKGHTTGLSLNNDRLYKLTYSTEVLLDRGKGKLQDSVGYRISSNVDVALLWRNPDGDDDQLIQITMKDVNVENVNQQRGEKSIFKGKSPSKIMGKENLEALQRPTLLHLIHGKVKEFYSYQNEAVAIENIKRGLASLFQTQLSSGTTNEVDISGNCKVTYQAHQDKVIKIKALDSCKIARSGFTTPNQVLGVSSKATSVTTYKIEDSFVIAVLAEETHNFGLNFLQTIKGKIVSKQKLELKTTEAGPRLMSGKQAAAIIKAVDSKYTAIPIVGQVFQSHCKGCPSLSELWRSTRKYLQPDNLSKAEAVRNFLAFIQHLRTAKKEEILQILKMENKEVLPQLVDAVTSAQTSDSLEAILDFLDFKSDSSIILQERFLYACGFASHPNEELLRALISKFKGSIGSSDIRETVMIITGTLVRKLCQNEGCKLKAVVEAKKLILGGLEKAEKKEDTRMYLLALKNALLPEGIPSLLKYAEAGEGPISHLATTALQRYDLPFITDEVKKTLNRIYHQNRKVHEKTVRTAAAAIILNNNPSYMDVKNILLSIGELPQEMNKYMLAIVQDILRFEMPASKIVRRVLKEMVAHNYDRFSRSGSSSAYTGYIERSPRSASTYSLDILYSGSGILRRSNLNIFQYIGKAGLHGSQVVIEAQGLEALIAATPDEGEENLDSYAGMSAILFDVQLRPVTFFNGYSDLMSKMLSASGDPISVVKGLILLIDHSQELQLQSGLKANIEVQGGLAIDISGAMEFSLWYRESKTRVKNRVTVVITTDITVDSSFVKAGLETSTETEAGLEFISTVQFSQYPFLVCMQMDKDEAPFRQFEKKYERLSTGRGYVSQKRKESVLAGCEFPLHQENSEMCKVVFAPQPDSTSSGWF
B2: Microsomal triglyceride transfer protein large subunit (Homo sapiens), P55157 (parent)
chain: B1 chain
partner: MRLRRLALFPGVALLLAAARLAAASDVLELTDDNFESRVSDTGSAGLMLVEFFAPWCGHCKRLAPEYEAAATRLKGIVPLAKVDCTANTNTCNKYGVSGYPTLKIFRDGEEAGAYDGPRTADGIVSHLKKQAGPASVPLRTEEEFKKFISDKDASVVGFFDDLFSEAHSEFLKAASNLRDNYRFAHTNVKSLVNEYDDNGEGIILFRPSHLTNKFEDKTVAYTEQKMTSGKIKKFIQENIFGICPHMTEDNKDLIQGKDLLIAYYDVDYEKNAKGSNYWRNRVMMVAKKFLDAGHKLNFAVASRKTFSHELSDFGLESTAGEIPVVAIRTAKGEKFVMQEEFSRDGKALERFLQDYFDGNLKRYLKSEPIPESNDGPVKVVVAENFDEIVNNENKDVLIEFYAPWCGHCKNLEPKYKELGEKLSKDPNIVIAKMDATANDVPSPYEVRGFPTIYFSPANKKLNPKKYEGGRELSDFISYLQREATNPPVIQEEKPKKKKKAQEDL

Variants of: B1
Settings: with apob_human APOB

effect of a mutation on the interaction	Variant
with no effect	D361E
with no effect	D361Y

Variants of: B1
Settings: with apob_human APOB
Remark: another data set of the same source

effect of a mutation on the interaction	Variant
increasing interaction strength	D361E

Variants of: B2
Settings: with pdia3_chlae PDIA3, Q4VIT4

effect of a mutation on the interaction	Variant
disrupting interaction strength	D361Y

Variants of: B2
Settings: with pdia3_chlae PDIA3, Q4VIT4
Remark: another data set of the same source

effect of a mutation on the interaction	Variant
decreasing interaction strength	D361Y
with no effect	D361E
